In test [1] the target is human IgG-HRP (human). The test can be described thus: ELISA, coated protein, human IgG-HRP, n=12.
For test [2], the target named is human IgG-HRP (human). In words: ELISA, SpA coated, human IgG-HRP, PBS in place of F(ab)2, n=5. For orientation: An ELISA detects its analyte on a solid surface through an enzyme-linked reagent.

Substance SpA5wt (from UniProt P38507 37-327) registered an OD450 nm, Mean value in the test with human IgG-HRP (human) [1] of 0.625 OD.

In turn, “SpA5 (RRVV) (from UniProt P38507 37-327)” yielded an OD450 nm, Mean value with human IgG-HRP (human) [1] of 0.062 OD.

SpA (252) (from UniProt P38507 37-508): the OD450 nm, Mean value with human IgG-HRP (human) [1] amounted to 0.635 OD. The OD450 nm, Ave with human IgG-HRP (human) [2] was 0.641 OD.

For the origin of these results see patent publication US20160304566A1.
